Measured values taken from article PMC2002509, “Site-Directed Mutations in the C-Terminal Extension of Human αB-Crystallin Affect Chaperone Function and Block Amyloid Fibril Formation” (PLoS ONE, 2007).
Numbering of substitutions follows the chain as printed. In names and notes the source's numbering stands.

B1: I159A/I161A αB-crystallin (natural protein, human, UniProt P02511 1-175, looked up)
chain: MDIAIHHPWIRRPFFPFHSPSRLFDQFFGEHLLESDLFPTSTSLSPFYLRPPSFLRAPSWFDTGLSEMRLEKDRFSVNLDVKHFSPEELKVKVLGDVIEVHGKHEERQDEHGFISREFHRKYRIPADVDPLTITSSLSSDGVLTVNGPRKQVSGPERTAPATREEKPAVTAAPKK
notes: αB-crystallin, human, SwissProt P02511, with I159A and I161A (I-X-I motif); ESI-MS mass 20074.4 Da; The measured mass fits the whole untagged protein with both changes; also called I159A/I161A mutant; source: dialyzed against 50 mM phosphate buffer
B2: K175L αB-crystallin (natural protein, human, UniProt P02511 1-175, looked up)
chain: B1 chain with A159I, A161I, K175L
notes: αB-crystallin, human, SwissProt P02511, with K175L; ESI-MS mass 20143.9 Da; The measured mass fits the whole untagged protein with the change; also called K175L mutant
B3: Wild-type human αB-crystallin (natural protein, UniProt P02511 1-175, looked up)
chain: B1 chain with A159I, A161I
notes: αB-crystallin, human, SwissProt P02511; Polydisperse oligomer; also called αB-WT; wild-type αB-crystallin
B4: E164A/E165A αB-crystallin (natural protein, human, UniProt P02511 1-175, looked up)
chain: B1 chain with A159I, A161I, E164A, E165A
notes: αB-crystallin, human, SwissProt P02511, with E164A and E165A; ESI-MS mass 20043.0 Da; The measured mass fits the whole untagged protein with both changes; also called E164A/E165A mutant
B5: K174A/K175A αB-crystallin (natural protein, human, UniProt P02511 1-175, looked up)
chain: B1 chain with A159I, A161I, K174A, K175A
notes: αB-crystallin, human, SwissProt P02511, with K174A and K175A; ESI-MS mass 20044.8 Da; The measured mass fits the whole untagged protein with both lysines changed to alanine, although the printed primer reads GCG AAG; also called K174A/K175A mutant

Molecular target: insulin B-chain (bovine pancreas insulin reduced with DTT) (bovine, UniProt P01317 25-54)
Sequence (P01317 25-54): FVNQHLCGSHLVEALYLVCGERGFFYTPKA
Experiment: cell-based or functional assay

Row | Binder | decrease in chaperone assay: percentage protection against DTT-induced precipitation of the insulin B-chain (light scattering at 340 nm, 37°C, 1.0:0.14 molar ratio of insulin:αB-crystallin, after 90 …) [%]
1 | B1 | 68

Molecular target: the molecule itself
Experiment: SEC; size-exclusion HPLC, Phenomenex BioSep SEC S4000 column; mobile phase 50 mM sodium phosphate buffer, pH 7.2; 10 µL of a 10 mg/mL sample, 0.5 mL/min; calibrated with mass standards; self-association into oligomers

Row | Binder | binding result
2 | B1 | binds
3 | B2 | binds
4 | B3 | binds
5 | B4 | binds
6 | B5 | binds
